This is an account of results in patent US20260055206A1 (GENSUN BIOPHARMA, published 2026).

T1: human DLL3 (over-expressed on CHO-K1 cells) (human, UniProt Q9NYJ7 27-618)
T1 construct: whole, on cells; also called huDLL3; Delta-like 3
T1 sequence (looked up): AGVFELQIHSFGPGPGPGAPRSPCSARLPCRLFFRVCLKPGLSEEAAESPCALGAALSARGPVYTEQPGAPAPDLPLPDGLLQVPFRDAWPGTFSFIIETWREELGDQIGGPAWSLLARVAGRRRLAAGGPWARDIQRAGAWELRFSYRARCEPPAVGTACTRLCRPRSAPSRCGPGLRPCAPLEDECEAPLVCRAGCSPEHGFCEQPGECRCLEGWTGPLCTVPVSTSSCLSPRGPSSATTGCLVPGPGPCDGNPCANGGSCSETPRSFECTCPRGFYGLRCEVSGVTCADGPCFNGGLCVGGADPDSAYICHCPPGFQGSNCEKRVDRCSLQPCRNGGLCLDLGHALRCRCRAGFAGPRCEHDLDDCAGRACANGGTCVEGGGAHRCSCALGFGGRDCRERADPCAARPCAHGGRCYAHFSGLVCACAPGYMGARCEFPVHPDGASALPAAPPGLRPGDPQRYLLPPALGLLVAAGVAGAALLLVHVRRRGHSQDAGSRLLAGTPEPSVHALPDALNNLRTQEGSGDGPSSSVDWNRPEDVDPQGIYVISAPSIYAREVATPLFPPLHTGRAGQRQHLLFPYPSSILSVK

B1: DLL3.3 (humanized anti-DLL3 antibody) (antibody, V domains shown)
VH: QVQLVQSGAEVKKPGASVKVSCKASGYTFTDYFMNWVRQAPGQGLEWMGVINPYNDITIYNQKFQGRVTMTVDRSTSTVYMELSSLRSEDTAVYYCAREGVLYDGYYEGAYWGQGTLVTVSS
VL: DIQLTQSPSFLSASVGDRVTITCKASQNVGIAVAWYQQKPGKAPKLLIYAASNRYTGVPSRFSGSGSGTEFTLTISSLQPEDFATYYCQQYSTYPYTFGQGTKLEIK
notes: it was detected with anti-human IgG Fc
B2: DLL3.1 (humanized anti-DLL3 antibody) (antibody, V domains shown)
VH: QVQLVQSGAEVKKPGASVKVSCKASDYTFSNYYIEWVRQAPGQGLEWMGEILPGNGNTVYNEKFKDRVTMTVDTSTSTAYMELRSLRSDDTAVYYCARWGDYALFANWGQGTLVTVSS
VL: DIQMTQSPSTLSASVGDRVTITCKASQNVGTNVAWYQQKPGKAPKALIYSASYRYSGVPSRFSGSGSGTEFTLTISSLQPDDFATYYCQQYNSYPFTFGQGTKLEIK
notes: as for B1
B3: DLL3.4 (humanized anti-DLL3 antibody) (antibody, V domains shown)
VH: QVQLVQSGAEVKKPGASVKVSCKATDYIFSNYYIEWVRQAPGQGLEWMGEILPGTGNTVYNEKFKDRVTMTVDTSTSTVYMELSSLRSEDTAVYYCARWGDYALFANWGQGTLVTVSS
VL: DIQMTQSPSFLSASVGDRVTITCKASQNVGTNVAWYQQKPGKAPKPLIYSTSYRYSGVPSRFSGSGSGTEFTLTISSLQPEDFATYYCQQYNNYPLTFGGGTKVEIK
notes: as for B1

This assay has as its target T1, human DLL3 (over-expressed on CHO-K1 …). As to the kind of experiment: flow cytometry (iQue) on CHO-K1 cells over-expressing human DLL3, PE anti-human IgG Fc secondary. The procedure:
To evaluate the ability of anti-DLL3 antibodies to bind, human serial dilutions of the anti-DLL3 antibodies were added to CHO-K1 cells (20,000 cells/well) over-expressing human or cyno DLL3. The mixtures were incubated at 4° C. for 20 minutes, washed 3 times, and stained with the secondary antibody, PE labeled F(ab′)2-Goat anti-human IgG Fc (Thermo H10104) at 4° C. for 20 minutes. Cells were washed and resuspended in 7-Amino-Actinomycin D (7-AAD) solution and fixed in 10% neutral buffered formalin solution for 15 minutes before analysis with the iQue-Intellicyt […]™ iQUE™ system. FIG. 3A is a graph of the concentration (nM) versus the mean fluorescence intensity.
In the case of B1, the binding result is on record as “binds”.
Regarding B2, the binding result is reported as “binds”.
B3: the binding result is “binds”.
